Here are results for two molecules from US20140308316A1, “ANTIGEN PRESENTING CANCER VACCINE WITH GAMMA INTERFERON” (CALIFORNIA STEM CELL, INC., priority 2011, published 2014).

Series [1] has as its system SK-5-Mel cells. As to the kind of experiment: Autophagy by flow cytometry with Enzo Cyto-ID Autophagy Detection Dye. Format: cell-based. The settings on record: for effect on autophagy in IFN-gamma treated cells: z-VAD 20 uM with 1000 IU/mL IFN-gamma, 72 hours. As to the method:
FIGS. 6A and 6B reveal apoptosis and autophagy induced in response to interferon-gamma. SK-5-Mel cells were incubated with 1000 IU/mL of IFN-gamma for 72 hours after which non-adherent and adherent populations were collected and assayed for apoptosis and autophagy by flow cytometry using 7-AAD and Annexin-V (FIG. 6A). Enzo Cyto-ID Autophagy Detection Dye was used to measure autophagy by flow cytometry by measuring the mean intensity peak shift of dye provided by the manufacturer (FIG. […]). Fold changes in the peak shift in comparison to 5% FBS/RPMI are shown in FIG. 6C with serum-free as positive control for the induction of autophagy.
SK-5-Mel cells were treated with 1000 IU/mL of IFN-gamma in the presence of 20 uM of the pan-caspase inhibitor z-VAD or its control compound, z-FA for 72 hours. The cells were harvested and assayed for autophagy by flow cytometry as in FIG. 6C.
(§1) The methodology of the study was as follows. Autologous and model melanoma tumor cell lines were incubated with 1000 IU/mL of IFN-gamma for 72 hours prior to assaying for autophagy, apoptosis and MHC class II expression. Autophagy was detected by immunobloting with antibodies against LC3 II and by flow cytometry with Enzo's CytoID® Autophagy Detection Kit. Apoptosis and MHC class II induction were assayed by flow cytometry using 7-AAD and annexin-V staining and antibodies against MHC class II, respectively.
(§2) The commercially available melanoma cell lines A375, SK-Mel-5 and SK-Mel-28 were purchased from American Type Culture Collection (Catalogue numbers: CRL-1619, HTB-70, and HTB-72). A375, SK-Mel-5, and SK-Mel-28 were maintained in 5% fetal bovine serum in RPMI-1640 (Invitrogen, catalogue number 11875-085). […]
(§3) What was investigated was the induction of autophagy, apoptosis and MHC class II molecules after IFN-gamma treatment of melanoma tumor cells in vitro. […] Autophagy was detected by immunobloting with antibodies against LC3 II and by flow cytometry with Enzo's CytoID Autophagy Detection Kit. […]

The test system of a further series is melanoma cell lines. As to the kind of experiment: Apoptosis by flow cytometry using 7-AAD and annexin-V. Type of series: cell-based. The settings on record: pan caspase inhibitor with IFN-gamma. Here is the method:
as §1
Analysis of tumor cell death and changes in major histocompatibility class II expression in response to IFN-gamma were conducted by use of antibodies directed against MHC class II, annexin-V and 7-amino-actinomycin D (7-AAD) and acquired on a Beckton-Dickenson FACS Calibur® flow cytometer.
What was investigated was the induction of autophagy, apoptosis and MHC class II molecules after IFN-gamma treatment of melanoma tumor cells in vitro. Autologous and model melanoma tumor cell lines were incubated with 1000 IU/mL of IFN-gamma for 72 hours prior to assaying for autophagy, apoptosis and MHC class II expression. Autophagy was detected by immunobloting with antibodies against LC3 II and by flow cytometry with Enzo's CytoID Autophagy Detection Kit. […]

In the next series the test system is MHC class I. As to the kind of experiment: Flow cytometry for MHC class I on IFN-gamma treated autologous tumor cells. Format: cell-based, human. The settings on record: 1000 IU/mL IFN-gamma 72 hours, N=65, p=2.8×10^−8. As to the method: (§4) FIGS. 2A-D show characterization of IFN-gamma treated autologous tumor cells used for loading dendritic cells. Autologous melanoma tumor cells were treated with or without 1000 IU/mL IFN-gamma for 72 hours in 15% FBS/ECS in RPMI, harvested and irradiated with 100 Gy and cryopreserved. Cells were then thawed in AIMV and a sample taken for flow cytometry and for preparation of cell lysates for immunoblotting prior to antigen loading of DCs. An example of four separate autologous melanoma cell lines is shown (FIG. 2A, FIG. 2B and FIG. 2C). Induction major histocompatibility complexes by IFN-gamma treatment of autologous tumor cells (FIG. 2D). Tumor cells were harvested after being treated with or without 1000 IU/mL IFN-gamma for 72 hours and then assayed for MHC class I and class II. Control isotype antibodies were used to identify positive populations. Dark data points indicate median mean fluorescent plus/minus 95% confidence interval, N=65. […]
(In general: Flow cytometry measures light scatter and fluorescence of single cells or particles in a stream.)

The next series concerns MHC class II. As to the kind of experiment: Flow cytometry for MHC class II on IFN-gamma treated autologous tumor cells. Format: cell-based, human. Here is the method: as §4
The test system of series [2] is melanoma cell lines used in patient-specific dendritic cell therapy. As to the kind of experiment: Immunohistochemistry of tumor associated antigens in melanoma lines with or without IFN-gamma. Type of series: cell-based, human. The settings on record: 1000 IU/mL IFN-gamma, 72 hours, N=27 samples. As to the method: Expression of a panel antigens by melanoma lines were determined using immunocytochemical procedure. Ceils were cultured in 8-chamber culture slides (Thermo Fisher, Rochester, N.Y.) in the presence or absence of 1000 IU/mL IFN-gamma. After 72 hours, the cells were washed 3 times with 1× Phosphate Buffered Saline (PBS) and fixed in cold acetone. After blocking endogenous peroxidase, cells were incubated with appropriate primary antibodies against the antigens listed. Immunohistochemistry was performed using biotinylated antimouse or rabbit immunoglobulins. Super Sensitive enzyme-conjugated streptavidin labeling and horse radish peroxidase chromogen, and substrate kits (Biogenex, San Ramon, Calif.). The reactivity of the following anti-human polyclonal or monoclonal antibodies was investigated with isotype matched control antibody: S-100 and HMB-45 (Biogenex, San Ramon, Calif.), Mel-2, Mel-5, Mart-1 (Signet, Dedham, Mass.), Tyrosinase and Mage-1 (Thermo Scientific, Fremont, Calif.), Melan-A, HLA-class I and HLA-class II (Dako Denmark).
Table I: Change in the expression level of common tumor associated antigens in response to interferon-gamma in melanoma cell lines used patient-specific cell based dendritic cell therapy.

In series [3] the test system is autologous melanoma cell lines. As to the kind of experiment: Immunoblot of lysates from melanoma cells incubated with or without IFN-gamma. The settings on record: IFN-gamma treated vs untreated. Format: cell-based, human. As to the method: FIGS. 2A-D show characterization of IFN-gamma treated autologous tumor cells used for loading dendritic cells. Autologous melanoma tumor cells were treated with or without 1000 IU/mL IFN-gamma for 72 hours in 15% FBS/ECS in RPMI, harvested and irradiated with 100 Gy and cryopreserved. Cells were then thawed in AIMV and a sample taken for flow cytometry and for preparation of cell lysates for immunoblotting prior to antigen loading of DCs. An example of four separate autologous melanoma cell lines is shown (FIG. 2A, FIG. 2B and FIG. 2C). Induction major histocompatibility complexes by IFN-gamma treatment of autologous tumor cells (FIG. 2D). Tumor cells were harvested after being treated with or without 1000 IU/mL IFN-gamma for 72 hours and then assayed for MHC class I and class II. Control isotype antibodies were used to identify positive populations. Dark data points indicate median mean fluorescent plus/minus 95% confidence interval, N=65.
Cytoplasmic cell lysates were prepared with Mammalian Protein Extraction Reagent (Thermo Scientific, Rockford, Ill.) plus protease inhibitor cocktail (Roche, Indianapolis, Ind.) at 10,000 cells/uL on ice. Approximately 25 uLs/lane of cell lysates were separated on 12.5% tris-glycine gels, transferred to PVDF membrane and probed with antibodies against the following: calreticulin (MBL, Woburn, Mass.), Hsp-60, Hsp-70, Hsp-90 (R&D Systems, Minneapolis, Minn.), HMBG-1 (Cell Signaling, Danvers, Mass.), ICAM-1 (Santa Cruz Biotech, Santa Cruz, Calif.), Mel-4, Mart-1 (Signet, Emeryville, Calif.), tyrosinase (Upstate, Lake Placid, N.Y.) and GADPH (Calbiochem, Darmstadt, Germany).
Lysates from cells that were incubated in the presence or absence of IFN-gamma were subjected to immunoblotting for a variety of molecules that may be important mediators of immunity (FIG. 1B). In the setting of melanoma cells treated with IFN-gamma, heat shock proteins appear to be differentially regulated but remain largely present in the cell preparations, especially in the case of hsp-70.
On the technique in general: A western blot detects proteins with antibodies after separation by electrophoresis.

A further series concerns melanoma tumor cells. As to the kind of experiment: Sensitivity of IFN-gamma treated melanoma tumor cells to cytotoxic T lymphocyte activity. Type of series: cell-based.
Series [4] has as its system SK-5-Mel cells. As to the kind of experiment: MHC class II (HLA-DR) expression by flow cytometry with autophagy inhibitor 3-MA. The settings on record: 1000 IU/mL IFN-gamma 72 hours; 3-MA 10 uM where present. Format: cell-based. As to the method:
The cells were then harvested and assayed for apoptosis and MHC class II (HLA-DR) expression by flow cytometry.
as §1, §2, §3

As to “carbobenzoxy-valyl-alanyl-aspartyl-[O-methyl]-fluoromethylketone [Z-VAD]”, the “effect on autophagy in IFN-gamma treated cells” value in the series on SK-5-Mel cells [1] is given as “does not perturb autophagy”; in the series with SK-5-Mel cells [1] (listed as z-VAD), “did not affect”. Moreover, the “effect on apoptosis in IFN-gamma treated cells” value in the series with melanoma cell lines is reported as “prevents apoptosis”.

B1: interferon-gamma (protein, UniProt P01579 24-161, looked up)
Interferon gamma: QDPYVKEAENLKKYFNAGHSDVADNGTLFLGILKNWKEESDRKIMQSQIVSFYFKLFKNFKDDQSIQKSVETIKEDMNVKFFNSNKKKRDDFEKLTNYSVTDLNVQRKAIHELIQVMAELSPAAKTGKRKRSQMLFRG
notes: interferon-gamma (InterMune), type II interferon, used at 1000 IU/mL for 72 hours on tumor cells
Take B1: the “MHC class I median fold induction (95% C.I.)” value in the series with MHC class I came to 2.91±1.13 fold. Besides, the “MHC class II mean fluorescence intensity, median induction (95% C.I.)” value with MHC class II (1000 IU/mL IFN-gamma 72 hours, N=65, p=0.039) is given as 4.23±2.66. In addition, in the series with MHC class II (in response to IFN-gamma treatment), the “cases with MHC class II induction greater than two fold” value came out at 70%. Further, the “Change after IFN-gamma treatment: None” value in series [2] (HMB-45) is 54.5%; in series [2] (MAGE-1) it was 38.5%; in series [2] (MART-1) it was 14.8%; in series [2] (Mel-2), 48.2%; in series [2] (Mel-5) it was 72.7%; in series [2] (Melan-A), 29.2%. In addition, the “Change after IFN-gamma treatment: None” value in series [2] (S-100) was 42.9%; in series [2] (Tyrosinase) it was 40.0%. The “Change after IFN-gamma treatment: Down” value was 81.5% in series [2] (MAGE-1); 85.2% in series [2] (MART-1); 53.8% in series [2] (Mel-2); 27.3% in series [2] (Mel-5); 70.8% in series [2] (Melan-A); 57.1% in series [2] (S-100). Further, the “Change after IFN-gamma treatment: Down” value in series [2] (Tyrosinase) was 80.0%. In addition, in series [3], the ICAM-1 expression entry was “significantly up-regulated”. Besides, in series [3], the “calreticulin and high-mobility group box-1 protein expression” value is reported as “up-regulated in some cases”. For the same molecule, the “common melanoma antigens (mel-4, Mart-1 and tyrosinase) expression” value in series [3] is on record as “down regulated”. Also, the “sensitivity to cytotoxic T lymphocyte (CTL) activity” value with melanoma tumor cells is recorded as “more sensitive”. Further, in the series on SK-5-Mel cells [4], the “MHC class II positive cells” value came to 39.4%. The “autophagy, fold change” value in the series on SK-5-Mel cells [1] (1000 IU/mL IFN-gamma 72 hours, z-VAD 20 uM where present, peak shift vs 5% FBS/RPMI) was 2.75±0.15 fold change.
